What is called Kd is the concentration at which binding is half-saturated. A higher Kd goes with a looser complex.

To fix the notation:
B1: Recombinant human versican G1 domain (domain or fragment)
chain: not shown
modifications: Limits taken by convention: mature N-terminus through Ig-like V, Link 1 and Link 2 (Abcam ab152303 limits not given); tag omitted
B2: Recombinant human versican G3 domain (domain or fragment)
chain: not shown
B3: Recombinant human versican isoform V3 (natural protein)
chain: not shown
notes: Versican isoform V3, human; contains only the N-terminal G1 and C-terminal G3 domains and lacks the GAG domains; also called V3 isoform; source: bought: R&D Systems

T1 sequence (P02454 152-1207, chain 1 of 2): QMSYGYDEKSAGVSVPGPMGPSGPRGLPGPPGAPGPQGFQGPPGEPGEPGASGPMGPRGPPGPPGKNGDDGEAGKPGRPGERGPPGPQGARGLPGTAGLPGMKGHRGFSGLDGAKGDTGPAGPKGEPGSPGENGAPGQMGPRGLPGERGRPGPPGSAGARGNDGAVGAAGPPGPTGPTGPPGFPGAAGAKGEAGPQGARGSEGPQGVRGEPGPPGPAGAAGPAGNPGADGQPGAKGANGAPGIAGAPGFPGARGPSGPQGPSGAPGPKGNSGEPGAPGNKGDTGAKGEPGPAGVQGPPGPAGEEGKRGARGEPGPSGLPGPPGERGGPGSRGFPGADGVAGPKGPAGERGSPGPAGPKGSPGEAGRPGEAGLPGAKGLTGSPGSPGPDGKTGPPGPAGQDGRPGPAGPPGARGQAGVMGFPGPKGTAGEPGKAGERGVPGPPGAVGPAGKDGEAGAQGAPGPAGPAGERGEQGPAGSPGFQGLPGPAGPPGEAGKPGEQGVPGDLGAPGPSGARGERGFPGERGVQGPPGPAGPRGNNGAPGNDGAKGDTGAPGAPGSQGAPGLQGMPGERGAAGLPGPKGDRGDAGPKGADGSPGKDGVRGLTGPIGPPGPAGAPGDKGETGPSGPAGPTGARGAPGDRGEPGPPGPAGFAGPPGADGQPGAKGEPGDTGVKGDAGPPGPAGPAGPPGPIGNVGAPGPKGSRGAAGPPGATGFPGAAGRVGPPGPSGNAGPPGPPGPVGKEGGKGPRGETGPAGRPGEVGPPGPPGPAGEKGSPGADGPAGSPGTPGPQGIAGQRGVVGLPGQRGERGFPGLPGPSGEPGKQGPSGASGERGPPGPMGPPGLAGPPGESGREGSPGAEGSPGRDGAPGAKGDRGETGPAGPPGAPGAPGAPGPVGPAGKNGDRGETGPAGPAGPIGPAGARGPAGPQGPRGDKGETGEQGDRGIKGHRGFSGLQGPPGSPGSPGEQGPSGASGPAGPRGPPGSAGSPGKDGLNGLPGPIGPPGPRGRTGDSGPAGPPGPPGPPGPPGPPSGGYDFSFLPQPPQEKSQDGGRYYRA
T1 sequence (P02466 86-1125, chain 2 of 2): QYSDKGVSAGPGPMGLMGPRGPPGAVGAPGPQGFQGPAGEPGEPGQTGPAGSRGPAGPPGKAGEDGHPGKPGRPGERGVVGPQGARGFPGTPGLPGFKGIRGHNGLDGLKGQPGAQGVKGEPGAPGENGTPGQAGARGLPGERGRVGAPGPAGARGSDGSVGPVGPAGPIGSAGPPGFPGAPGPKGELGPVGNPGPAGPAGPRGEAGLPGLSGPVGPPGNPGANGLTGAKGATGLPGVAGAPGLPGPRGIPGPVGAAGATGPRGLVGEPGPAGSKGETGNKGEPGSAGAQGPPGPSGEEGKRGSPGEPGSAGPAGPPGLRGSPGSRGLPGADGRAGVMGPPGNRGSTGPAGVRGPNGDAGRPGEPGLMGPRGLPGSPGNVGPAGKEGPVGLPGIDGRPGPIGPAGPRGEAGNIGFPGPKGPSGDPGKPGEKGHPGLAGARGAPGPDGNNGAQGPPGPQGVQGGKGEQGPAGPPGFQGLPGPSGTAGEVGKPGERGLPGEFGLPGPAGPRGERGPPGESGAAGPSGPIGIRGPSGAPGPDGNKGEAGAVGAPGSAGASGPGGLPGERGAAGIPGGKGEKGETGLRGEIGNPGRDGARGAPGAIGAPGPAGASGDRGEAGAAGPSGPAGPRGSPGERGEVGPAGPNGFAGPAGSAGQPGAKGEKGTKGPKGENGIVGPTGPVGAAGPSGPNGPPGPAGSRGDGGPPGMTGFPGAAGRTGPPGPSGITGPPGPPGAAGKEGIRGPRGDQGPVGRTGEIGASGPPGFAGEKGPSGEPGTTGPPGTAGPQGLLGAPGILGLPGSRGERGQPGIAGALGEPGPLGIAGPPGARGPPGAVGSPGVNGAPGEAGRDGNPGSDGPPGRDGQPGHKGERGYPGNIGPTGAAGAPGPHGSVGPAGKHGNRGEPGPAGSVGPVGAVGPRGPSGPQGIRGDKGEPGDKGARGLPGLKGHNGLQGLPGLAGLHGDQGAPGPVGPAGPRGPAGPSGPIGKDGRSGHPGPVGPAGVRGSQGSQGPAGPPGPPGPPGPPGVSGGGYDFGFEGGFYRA

This assay has as its target T1, Rat tail type I telo-collagen (rat, UniProt P02454 152-1207; P02466 86-1125).
T1 construct: Type I collagen alpha-1 chain, rat tail telo-collagen; Type I collagen alpha-2 chain, rat tail telo-collagen; Extracted from tissue; Telopeptides are kept (telo-collagen); also called type I collagen; full-length collagen; source: bought: Corning (rat tail)
As to the kind of experiment: ELISA; solid-phase binding assay: proteoglycan or versican domain coated on a 96-well plate (0.25 ug/ml; 0.05-1 ug/ml in Fig. 2A) at 4 C overnight, blocked with 3% BSA in TTBS or casein; rat tail type I collagen 0.1-5 ug/ml in 1% BSA/PBS overnight at RT; detected with biotin-conjugated anti-collagen I antibody, streptavidin-HRP and TMB; Kd from Scatchard plot. Particulars: both partners purified. In general terms: ELISA stands for enzyme-linked immunosorbent assay.
In turn, B1 showed a Kd of 0.9 nM.

Regarding B2, the affinity, expressed as Kd, was 3.2 nM.

For B3, binding was characterised by a dissociation constant (Kd) of 0.7 nM.

The record behind these values is article PMC11626796, “Versican binds collagen via its G3 domain and regulates the organization and mechanics of collagenous matrices” (The Journal of Biological Chemistry, 2024).
